Test results taken from paper doi:10.1101/2025.09.13.676064, “Structural Hijacking of FcRn by Human Astrovirus Spikes Reveals Conserved Epitopes for Broad-Spectrum Antivirals” (bioRxiv, 2025).

Columns and labels:
[1] = biological target: T1, untagged recombinant human FcRn extracellular domain (neonatal Fc receptor; α-chain with β2-microglobulin) (human, UniProt P55899 24-297; P61769 21-119); experiment: BLI; biotinylated spike immobilised on streptavidin (SA) biosensors; FcRn in solution, 2-fold dilutions 1,000 to 31.25 nM; 23°C; pH 6.0; 1:1 binding model; Octet Red; details: both partners purified
T1 construct: Human FcRn α-chain (heavy chain), residues 24-297 of UniProt P55899; Human β2-microglobulin, residues 21-119 of UniProt P61769; Untagged; both chains cloned into separate phCMV3 vectors; also called human FcRn ectodomain; FcRn heterodimer; source: Expi293F cells, co-transfected (1:1), purified from the supernatant (human IgG column, SEC Superdex 200 Increase)
T1 sequence (P55899 24-297, chain 1 of 2): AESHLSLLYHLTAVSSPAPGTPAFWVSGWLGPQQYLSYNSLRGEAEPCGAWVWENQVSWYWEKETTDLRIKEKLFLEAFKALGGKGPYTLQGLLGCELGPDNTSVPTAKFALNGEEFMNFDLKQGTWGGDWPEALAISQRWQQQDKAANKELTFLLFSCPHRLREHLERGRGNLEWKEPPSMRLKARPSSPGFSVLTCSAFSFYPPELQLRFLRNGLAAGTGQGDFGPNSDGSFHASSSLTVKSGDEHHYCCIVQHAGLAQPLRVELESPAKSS
T1 sequence (P61769 21-119, chain 2 of 2): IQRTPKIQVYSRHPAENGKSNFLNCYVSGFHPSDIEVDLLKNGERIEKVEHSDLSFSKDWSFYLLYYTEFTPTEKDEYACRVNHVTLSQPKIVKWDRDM

[2] = biological target: T1, untagged recombinant human FcRn …; experiment: BLI; biotinylated spike immobilised on streptavidin (SA) biosensors; FcRn in solution, 2-fold dilutions 1,000 to 31.25 nM; 23°C; pH 7.5; 1:1 binding model; Octet Red; details: both partners purified

| Binder | Kd [1] [nM] | Kd [2] [nM] |
| --- | --- | --- |
| HAstV-8 capsid spike domain (residues 424-645) (domain or fragment, biotin (biotinylated spike; BirA co-transfected), Human astrovirus serotype 8 capsid protein (ORF2-encoded precursor), spike domain, residues 424-645 of Q9IFX1; Codon-optimised, in pcDNA3.1; also called HAstV8 spike; serotype 8 spike; source: Expi293F cells, co-transfected with BirA plasmid, purified from the supernatant (Ni-IMAC, SEC Superdex 200); not shown: AviTag, C-terminal, kept) SIPEPGEQFRVLLTVGPPMAPNTANSQNWVNKTIVPPENQYTVKIGIDLEHYTTMQGFTPVESVSWYTADFQPSDEPSPIPGLYARVNNTKKADVYGVQQFKSSHTNNRHQITSVFLVRVTTSFQVINYTSYFIRGAESGSNVSNLKIRDQTYHTPLQFTQGKWYLLTSTVMHDGPTSSGWVWMNQELTNNIAYRVDPGMMYLITPPPAASQLYFELHTVLP | 60 | 458 |
| HAstV-2 capsid spike domain (residues 428-647) (domain or fragment, biotin (biotinylated spike; BirA co-transfected), Human astrovirus serotype 2 capsid protein (ORF2-encoded precursor), spike domain, residues 428-647 of Q82446.1; Codon-optimised, in pcDNA3.1; also called HAstV2 spike; serotype 2 spike; source: Expi293F cells, co-transfected with BirA plasmid, purified from the supernatant (Ni-IMAC, SEC Superdex 200); not shown: AviTag, C-terminal, kept) SGELRVLLTVGSIMSPNSADRQVWLNKTLTAPGTNSNDNLVKIAHDLGHYLIMQGFMHIKTVEWYTPDFQPSRDPTPIAGMSVMVNITKKADVYFMKQFKNSYTNNRHQITSIFLIKPLADFKVQCYMSYFKRESHDNDGVANLTVRSMTSPETIRFQVGEWYLLTSTTLKENNLPEGWVWDRVELKSDTPYYADQALTYFITPPPVDSQILFEGNTTLP | 42 | 898 |
